From patent US20050037404A1

Molecular target: all of the coactivators tested
Test: cell-based or functional assay

B1: VP16 transactivation domain linked to the ligand binding domain of SXR (VP-L-SXR), P06492 413-490; O75469 107-434 (protein)
chain: APPTDVSLGDELHLDGEDVAMAHADALDDFDLDMLGDGDSPGPGFTPHDSAPYGALDMADFEFEQMFTDALGIDEYGGMKKEMIMSDEAVEERRALIKRKKSERTGTQPLGVQGLTEEQRMMIRELMDAQMKTFDTTFSHFKNFRLPGVLSSGCELPESLQAPSREEAAKWSQVRKDLCSLKVSLQLRGEDGSVWNYKPPADSGGKEIFSLLPHMADMSTYMFKGIISFAKVISYFRDLPIEDQISLLKGAAFELCQLRFNTVFNAETGTWECGRLSYCLEDTAGGFQQLLLEPMLKFHYMLKKLQLHEEEYVLMQAISLFSPDRPGVLQHRVVDQLQEQFAITLKSYIECNRPQPAHRFLFLKIMAMLTELRSINAQHTQRLLRIQDIHPFATPLMQELFGITGS
Gal4 reporter activity in mammalian two-hybrid assay, 10 µM docetaxel against 10 µM paclitaxel (% less than with paclitaxel): 25 to 40
